According to patent US20220016254A1 (BEIJING QL BIOPHARMACEUTICAL, published 2022):
Substitutions are numbered along the chain they refer to.

T1: human beta-Klotho (human, UniProt Q86Z14 1-1044)
T1 sequence (looked up): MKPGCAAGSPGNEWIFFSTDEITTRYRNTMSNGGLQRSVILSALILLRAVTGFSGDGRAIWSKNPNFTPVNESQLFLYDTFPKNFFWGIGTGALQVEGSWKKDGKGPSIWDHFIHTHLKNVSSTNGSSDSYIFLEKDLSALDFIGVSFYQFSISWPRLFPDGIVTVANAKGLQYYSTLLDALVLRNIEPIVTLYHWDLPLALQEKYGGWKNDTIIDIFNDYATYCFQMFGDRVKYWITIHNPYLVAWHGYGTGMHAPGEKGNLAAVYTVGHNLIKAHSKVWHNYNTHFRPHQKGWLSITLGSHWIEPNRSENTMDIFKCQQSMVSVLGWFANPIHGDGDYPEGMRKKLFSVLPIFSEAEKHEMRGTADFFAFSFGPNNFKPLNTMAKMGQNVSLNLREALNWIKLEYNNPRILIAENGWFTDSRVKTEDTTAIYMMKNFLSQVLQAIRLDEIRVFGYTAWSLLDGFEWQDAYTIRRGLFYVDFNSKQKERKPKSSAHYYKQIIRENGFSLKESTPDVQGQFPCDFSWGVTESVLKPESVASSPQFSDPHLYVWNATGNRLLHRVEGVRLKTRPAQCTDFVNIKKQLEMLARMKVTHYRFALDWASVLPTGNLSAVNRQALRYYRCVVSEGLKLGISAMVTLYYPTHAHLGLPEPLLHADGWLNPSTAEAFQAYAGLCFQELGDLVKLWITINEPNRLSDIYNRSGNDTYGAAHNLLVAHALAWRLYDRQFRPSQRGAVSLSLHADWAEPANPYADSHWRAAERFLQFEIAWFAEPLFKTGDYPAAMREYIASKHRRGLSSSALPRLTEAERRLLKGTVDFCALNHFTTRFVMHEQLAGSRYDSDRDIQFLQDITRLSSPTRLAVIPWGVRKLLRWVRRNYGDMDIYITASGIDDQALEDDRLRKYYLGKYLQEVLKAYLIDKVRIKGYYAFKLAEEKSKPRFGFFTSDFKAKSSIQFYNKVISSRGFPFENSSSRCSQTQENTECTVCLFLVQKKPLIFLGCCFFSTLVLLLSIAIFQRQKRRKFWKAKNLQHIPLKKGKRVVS

B1: Compound 71 (ligand)
chain: HGEGTFTSDVSSYLEEQAAKEFIAWLVKGGGGAQPGAQPGAQPGAQPGAQPCQAPGAQPGAQPGAQPGAQPGAQPGAQPGAQPGAQPGAQPGAQPGAQPGAQPGAQPGAQPHPIPDSSPLLQFGGQVRQRYLYTDDAQQTEAHLEIREDGTVGGAADQSPESLLQLKALKPGVIQILGVKTSRFLCQRPDGALYGSLHFDPEACSFRELLLEDGYNVYQSEAHGLPLHLPGQKSPHRDPAPRGPARFLPLPGLPPALPEPPGILAPQPPDVGSSDPLSLVGCSQGRSPSYES
modifications: Moiety B (HOOC-(CH2)20-CO-gGlu-2XADO-EDA-CO-CH2) on 52C and 282C of fusion polypeptide
B2: Compound 72 (ligand)
chain: B1 chain with C52G, Q53A, A54Q, A61Q, Q62C
modifications: Moiety B (HOOC-(CH2)20-CO-gGlu-2XADO-EDA-CO-CH2) on 62C and 282C of fusion polypeptide
B3: Compound 73 (ligand)
chain: B1 chain with A41Q, Q42C, C52G, Q53A, A54Q
modifications: Moiety B (HOOC-(CH2)20-CO-gGlu-2XADO-EDA-CO-CH2) on 42C and 282C of fusion polypeptide
B4: Compound 69 (ligand)
chain: EGTFTSDVSSYLEEQAAKEFIAWLVKGGGGGGGSGGGGSGGGGSGGGGCHPIPDSSPLLQFGGQVRQRYLYTDDAQQTEAHLEIREDGTVGGAADQSPESLLQLKALKPGVIQILGVKTSRFLCQRPDGALYGSLHFDPEACSFRELLLEDGYNVYQSEAHGLPLHLPGQKSPHRDPAPRGPARFLPLPGLPPALPEPPGILAPQPPDVGSSDPLSLVGCSQGRSPSYES
modifications: Moiety B (HOOC-(CH2)20-CO-gGlu-2XADO-EDA-CO-CH2) on 49C and 220C of fusion polypeptide
B5: Compound 70 (ligand)
chain: HGEGTFTSDVSSYLEEQAAKEFIAWLVKGGGGGGGSGGGGSGGGGSGGGGCHPIPDSSPLLQFGGQVRQRYLYTDDAQQTEAHLEIREDGTVGGAADQSPESLLQLKALKPGVIQILGVKTSRFLCQRPDGALYGSLHFDPEACSFRELLLEDGYNVYQSEAHGLPLHLPGQKSPHRDPAPRGPARFLPLPGLPPALPEPPGILAPQPPDVGSSDPLSC
modifications: Moiety B (HOOC-(CH2)20-CO-gGlu-2XADO-EDA-CO-CH2) on 51C and 219C of fusion polypeptide
B6: Compound 66 (ligand)
chain: HGEGTFTSDVSSYLEEQAAKEFIAWLVKGGGGSAPGSPAGSPTGSAPGSPCHPIPDSSPLLQFGGQVRQRYLYTDDAQQTEAHLEIREDGTVGGAADQSPESLLQLKALKPGVIQILGVKTSRFLCQRPDGALYGSLHFDPEACSFRELLLEDGYNVYQSEAHGLPLHLPGQKSPHRDPAPRGPARFLPLPGLPPALPEPPGILAPQPPDVGSSDPLSLVGGSQCRSPSYES
modifications: Moiety B (HOOC-(CH2)20-CO-gGlu-2XADO-EDA-CO-CH2) on 51C and 225C of fusion polypeptide
B7: Compound 54 (ligand)
chain: HGEGTFTSDVSSYLEEQAAKEFIAWLVRGGGGGGGSGGGGSGGGGSGGGGCHPIPDSSPLLQFGGQVRQRYLYTDDAQQTEAHLEIREDGTVGGAADQSPESLLQLKALKPGVIQILGVKTSRFLCQRPDGALYGSLHFDPEACSFRELLLEDGYNVYQSEAHGLPLHLPGQKSPHRDPAPRGPARFLPLPGLPPALPEPPGILAPQPPDVGSSDPLSLVGGSQGRSPSYCS
modifications: Moiety B (HOOC-(CH2)20-CO-gGlu-2XADO-EDA-CO-CH2) on 51C and 231C of fusion polypeptide
B8: Compound 4 (ligand)
chain: B7 chain with K20R, C51K, K107R, K110R, K120R, K173R, C231K
modifications: Moiety A (HOOC-(CH2)16-CO-gGlu-2XADO) on 51K and 231K of fusion polypeptide
B9: Compound 63 (ligand)
chain: B7 chain with R28K, G222C, C231E
modifications: Moiety B (HOOC-(CH2)20-CO-gGlu-2XADO-EDA-CO-CH2) on 51C and 222C of fusion polypeptide
B10: Compound 5 (ligand)
chain: B7 chain with K20R, C51K, K107R, K110R, K120R, K173R, G222K, C231A
modifications: Moiety A (HOOC-(CH2)16-CO-gGlu-2XADO) on 51K and 222K of fusion polypeptide

Legend:
human beta-Klotho = biological target: T1, human beta-Klotho; assay: cell-based or functional assay
human GLP-1 receptor = human GLP-1 receptor (human, UniProt P43220 24-463); assay: cell-based or functional assay

| Binder | FGF21 activity (EC50, nM); p-ERK levels (human beta-Klotho) [nM] | GLP-1 activity (EC50, pM); CRE luciferase reporter (human GLP-1 receptor) [pM] |
| --- | --- | --- |
| B1 | 2.7 | 16.5 |
| B2 | 2.4 | 16.5 |
| B3 | 3.6 | 16.6 |
| B4 | 0.53 | > 1000 |
| B5 | > 100 | 24.8 |
| B6 | 1 | 41.3 |
| B7 | 3.4 | 19 |
| B8 | 7.7 | 25.1 |
| B9 | 1.2 | 49.1 |
| B10 | 12.9 | 23.1 |
